Measurements as given in US20260139240A1 (GRIFFITH UNIVERSITY, published 2026).

Target: T1, Wild type SubB (subtilase cytotoxin B subunit) (Escherichia coli, UniProt Q6EZC3 24-141)
T1 construct: also called SubB WT
Experiment: SPR (Biacore […]), […], single cycle kinetics

B1: Bovine α1-acid glycoprotein (AGP) (other)
chain: QSPECANLMTVAPITNATMDLLSGKWFYIGSAFRNPEYNKSARAIQAAFFYLEPRHAEDKLITREYQTIEDKCVYNCSFIKIYRQNGTLSKVESDREHFVDLLLSKHFRTFMLAASWNGTKNVGVSFYADKPEVTQEQKKEFLDVIKCIGIQESEIIYTDEKKDACGPLEKQHEEERKKETEAS
notes: mature; also called Bovine α1-AGP; bovine AGP
- Kd: 156 nM
